Where a chain is given by its changes, count along the chain named. Values belong to the binder of their own block, whether it stands above or below them.
Legend:
[1] = biological target: sRAGE antigen (biotin-labeled); assay: ELISA with biotinylated sRAGE
[2] = biological target: sRAGE antigen (biotin-labeled); assay: ELISA: antibody coated on plate, serial dilution of biotinylated sRAGE, HRP-streptavidin detection, Prism non-linear fit
[3] = biological target: sRAGE antigen (biotin-labeled); assay: as above; remark: listed apart in the source

Kd [1]: 133 nM
Kd [2]: 42.1 nM
B1: humanized anti-RAGE antibody, full-length IgG1 (antibody, V domains shown)
VH: QVQLQESGPGLVKPSQTLSLTCAVYGGSITSGYYWNWIRQPPGKGLEWIGDISYDGSNNYNPSLKSRVTISRDTSKNQFSLKLSSVTAADTAVYYCVREDRSGYPPFANWGQGTLVTVSS
VL: DIQMTQSPSSLSASVGDRVTITCQASQDISNYLNWYQQKPGKAPKLLIYYTSRLHSGVPSRFSGSGSGTDFTFTISSLQPEDIATYYCQQGNTLPWTFGQGTKV

Kd [1]: 62.6 nM
Kd [3]: 58 nM
Kd [2]: 88.4 nM
B2: original murine anti-RAGE monoclonal antibody (IgG2a isotype with a Kappa light chain) (antibody, V domains shown)
VH: DVQLQESGPGLVKPSQSLSLNCSVTGSSITSGYYWNWIRQFPGNKLEWMGDISYDGSNNYNPSLKNRISITRDTSKNQVFMKLNSVTTEDTAIYKCVREDRSGYPPFANWGQGTLVTVSA
VL: DVQMTQTTSSLSASLGDRVTINCRASQDISNYLNWYQQKPDGTVKLLIYYTSRLHSGVPSRFSGSGSGTDYSLTISNLEQEDIATYFCQQGNTLPWTFGGGTKLEIK

Kd [1]: 104 nM
Kd [3]: 40 nM
Kd [2]: 38.7 nM
B3: mouse-human chimera anti-RAGE antibody (antibody, human IgG1, kappa, V domains shown)
VH: B2 VH with A120S
VL: DIQMTQTTSSLSASLGDRVTINCRASQDISNYLNWYQQKPDGTVKLLIYYTSRLHSGVPSRFSGSGSGTDYSLTISNLEQEDIATYFCQQGNTLPWTFGQGTKVEIKR

From patent US20190119378A1
